To fix the notation:
B1: Pistol ribozyme (parent)
chain: GGGUCGUUGUUCCAUAAUCGCGUGGAUAUGGCACGCAAGUUUCUACCGGGCACCGUAAAUGUCCGACUGGAGCCGUUCGGGCGGCUAUAAACAGACCUCAGGCCCGAAGCGUGGCGGCACCUGCCGCCGGUGGUAAAAAAGAUCGGAAGAGCACACGUCU

This data set covers variants of B1. The data set is described as follows: aptazyme ON/OFF ratio, guanine; higher = stronger switching; co-transcriptional cleavage with and without guanine.
For U7G U8A G9U U10C U11C C13G, the “aptazyme ON/OFF ratio” value was found to be 1.02.

As for U7G U8A G9U U10C U11C C13U, the “aptazyme ON/OFF ratio” value was 1.01.

Consider U7G U8A G9U U10C U11C C13A, for which the “aptazyme ON/OFF ratio” value came out at 1.03.

Take U7G U8A G9C U10G U11A: the “aptazyme ON/OFF ratio” value was 1.04.

U7G U8A G9C U10G U11G: the “aptazyme ON/OFF ratio” value was 1.14.

Take U7G U8A G9C U10G U11C: the “aptazyme ON/OFF ratio” value was found to be 1.03.

As to U7G U8A G9C U10G U11G C12U C13A, the “aptazyme ON/OFF ratio” value is 1.07.

For U7G U8A G9C U10G U11G C12U C13G, the “aptazyme ON/OFF ratio” value is 1.03.

In the case of U7G U8A G9C U10G U11G C12U C13U, the “aptazyme ON/OFF ratio” value came to 1.15.

As for U7G U8A G9U U10G U11A C12G, the “aptazyme ON/OFF ratio” value worked out at 1.09.

Turning to U7G U8A G9U U10G U11A C12U, the “aptazyme ON/OFF ratio” value amounted to 1.04.

Regarding U7G U8A G9U U10G U11A C12A, the “aptazyme ON/OFF ratio” value worked out at 1.09.

Turning to U7G U8A G9U U10G C13G, the “aptazyme ON/OFF ratio” value is 1.19.

With U7G U8A G9U U10G C13A, the “aptazyme ON/OFF ratio” value is 1.35.

On to U7G U8A G9U U10G C13U, for which the “aptazyme ON/OFF ratio” value was found to be 1.21.

As to U7G U8A G9C U11G C12A C13U, the “aptazyme ON/OFF ratio” value is 1.06.

For U7G U8A G9C U11G C12A C13G, the “aptazyme ON/OFF ratio” value is 1.06.

On to U7G U8A G9C U11G C12A C13A, for which the “aptazyme ON/OFF ratio” value was 1.05.

With U7G U8A G9U U10G U11A C12U C13U, the “aptazyme ON/OFF ratio” value is 1.02.

On to U7G U8A G9U U10G U11A C12U C13A, for which the “aptazyme ON/OFF ratio” value was 1.11.

Turning to U7G U8A G9U U10G U11A C12U C13G, the “aptazyme ON/OFF ratio” value stood at 1.03.

Take U7G U8A G9U U10A U11C C12A C13A: the “aptazyme ON/OFF ratio” value was found to be 1.1.

Take U7G U8A G9U U10A U11C C12A C13U: the “aptazyme ON/OFF ratio” value is 1.05.

Turning to U7G U8A G9U U10A U11C C12A C13G, the “aptazyme ON/OFF ratio” value is 1.02.

On to U7G U8A G9C U10G C12U C13U, for which the “aptazyme ON/OFF ratio” value came to 1.06.

Turning to U7G U8A G9C U10G C12U C13A, the “aptazyme ON/OFF ratio” value was 1.06.

As for U7G U8A G9C U10G C12U C13G, the “aptazyme ON/OFF ratio” value amounted to 1.03.

As for U7G U8A G9C U10C U11C C12G C13G, the “aptazyme ON/OFF ratio” value turned out to be 1.04.

As for U7G U8A G9C U10C U11C C12G C13A, the “aptazyme ON/OFF ratio” value was found to be 1.05.

In the case of U7G U8A G9C U10C U11C C12G C13U, the “aptazyme ON/OFF ratio” value worked out at 1.03.

With U7G U8A G9U U10A C13A, the “aptazyme ON/OFF ratio” value stood at 1.06.

Regarding U7G U8A G9U U10A C13U, the “aptazyme ON/OFF ratio” value was 1.02.

For the variant U7G U8A G9U U10A C13G, the “aptazyme ON/OFF ratio” value turned out to be 1.03.

For the variant U7G U8A G9C U11A C12A C13A, the “aptazyme ON/OFF ratio” value was 1.01.

Take U7G U8A G9C U11A C12A C13G: the “aptazyme ON/OFF ratio” value was determined as 1.05.

For U7G U8A G9C U11A C12A C13U, the “aptazyme ON/OFF ratio” value is 1.04.

For U7G U8A G9C U11A C12A, the “aptazyme ON/OFF ratio” value turned out to be 1.03.

Consider U7G U8A G9C U11A C12G, for which the “aptazyme ON/OFF ratio” value came to 1.04.

As for U7G U8A G9C U11A C12U, the “aptazyme ON/OFF ratio” value was determined as 1.03.

For the variant U7G U8A G9U C12U C13U, the “aptazyme ON/OFF ratio” value was 1.07.

U7G U8A G9U C12U C13A: the “aptazyme ON/OFF ratio” value amounted to 1.06.

Take U7G U8A G9U C12U C13G: the “aptazyme ON/OFF ratio” value was 1.07.

Consider U7G U8A G9U U10G U11A C12A C13G, for which the “aptazyme ON/OFF ratio” value is 1.07.

As to U7G U8A G9U U10G U11A C12A C13A, the “aptazyme ON/OFF ratio” value was found to be 1.12.

As to U7G U8A G9U U10G U11A C12A C13U, the “aptazyme ON/OFF ratio” value came out at 1.07.

With U7G U8A G9C U10G U11G C12A C13A, the “aptazyme ON/OFF ratio” value was 1.05.

With U7G U8A G9C U10G U11G C12A C13G, the “aptazyme ON/OFF ratio” value came to 1.03.

For U7G U8A G9C U10G U11G C12A C13U, the “aptazyme ON/OFF ratio” value was found to be 1.03.

On to U7G U8A G9U U10C C12G, for which the “aptazyme ON/OFF ratio” value was 1.52.

For the variant U7G U8A G9U U10C C12U, the “aptazyme ON/OFF ratio” value is 1.32.

Turning to U7G U8A G9U U10C C12A, the “aptazyme ON/OFF ratio” value amounted to 1.2.

Regarding U7G U8A G9C U11A C12U C13A, the “aptazyme ON/OFF ratio” value came out at 1.03.

For the variant U7G U8A G9C U11A C12U C13U, the “aptazyme ON/OFF ratio” value is 1.02.

As for U7G U8A G9C U11A C12U C13G, the “aptazyme ON/OFF ratio” value is 1.03.

Regarding U7G U8A G9U U10C U11A C12A C13G, the “aptazyme ON/OFF ratio” value stood at 1.06.

As for U7G U8A G9U U10C U11A C12A C13U, the “aptazyme ON/OFF ratio” value stood at 1.09.

Take U7G U8A G9U U10C U11A C12A C13A: the “aptazyme ON/OFF ratio” value is 1.14.

In the case of U7G U8A G9C U10G U11C C12G C13G, the “aptazyme ON/OFF ratio” value was found to be 1.03.

Consider U7G U8A G9C U10G U11C C12G C13A, for which the “aptazyme ON/OFF ratio” value amounted to 1.03.

For U7G U8A G9C U10G U11C C12G C13U, the “aptazyme ON/OFF ratio” value turned out to be 1.03.

U7G U8A G9U U10A U11C C12G C13G: the “aptazyme ON/OFF ratio” value turned out to be 1.05.

As to U7G U8A G9U U10A U11C C12G C13A, the “aptazyme ON/OFF ratio” value was found to be 1.06.

As to U7G U8A G9U U10A U11C C12G C13U, the “aptazyme ON/OFF ratio” value was 1.05.

As to U7G U8A G9U U10C U11A C13A, the “aptazyme ON/OFF ratio” value worked out at 1.1.

Take U7G U8A G9U U10C U11A C13G: the “aptazyme ON/OFF ratio” value was 1.05.

Take U7G U8A G9U U10C U11A C13U: the “aptazyme ON/OFF ratio” value is 1.08.

Regarding U7G U8A G9C U10G C12G C13G, the “aptazyme ON/OFF ratio” value is 1.08.

For U7G U8A G9C U10G C12G C13A, the “aptazyme ON/OFF ratio” value came out at 1.06.

Take U7G U8A G9C U10G C12G C13U: the “aptazyme ON/OFF ratio” value worked out at 1.18.

Take U7G U8A G9U U10C C12A C13A: the “aptazyme ON/OFF ratio” value came to 1.12.

Take U7G U8A G9U U10C C12A C13U: the “aptazyme ON/OFF ratio” value came to 1.15.

As to U7G U8A G9U U10C C12A C13G, the “aptazyme ON/OFF ratio” value is 1.12.

Turning to U7G U8A G9C U10C U11G C12G C13U, the “aptazyme ON/OFF ratio” value is 1.02.

For the variant U7G U8A G9C U10C U11G C12G C13G, the “aptazyme ON/OFF ratio” value turned out to be 1.02.

For the variant U7G U8A G9C U10C U11G C12G C13A, the “aptazyme ON/OFF ratio” value worked out at 1.02.

As for U7G U8A G9C U10G, the “aptazyme ON/OFF ratio” value came to 1.1.

Turning to U7G U8A G9U C13A, the “aptazyme ON/OFF ratio” value turned out to be 1.08.

As to U7G U8A G9U C13G, the “aptazyme ON/OFF ratio” value was 1.06.

Regarding U7G U8A G9U C13U, the “aptazyme ON/OFF ratio” value turned out to be 1.3.

U7G U8A G9C U11G C12G C13A: the “aptazyme ON/OFF ratio” value was 1.01.

Take U7G U8A G9C U11G C12G C13G: the “aptazyme ON/OFF ratio” value came to 1.03.

U7G U8A G9C U11G C12G C13U: the “aptazyme ON/OFF ratio” value turned out to be 1.03.

Regarding U7G U8A G9C U11C C13G, the “aptazyme ON/OFF ratio” value is 1.05.

Values taken from the RNAGym collection of RNA variant scans (doi:10.1021/acssynbio.7b00057).
